# Test results from IntAct's records for PubMed 31515488.
# B1: Zinc finger protein 655 (Homo sapiens), Q8N720 (parent)
# chain: MEEIPAQEAAGSPRVQFQSLETQSECLSPEPQFVQDTDMEQGLTGDGETREENKLLIPKQKISEEVHSYKVRVGRLKHDITQVPETREVYKSEDRLERLQEILRKFLYLEREFRQITISKETFTSEKNNECHEPEKSFSLDSTIDADQRVLRIQNTDDNDKYDMSFNQNSASGKHEHLNLTEDFQSSECKESLMDLSHLNKWESIPNTEKSYKCDVCGKIFHQSSALTRHQRIHTREKPYKCKECEKSFSQSSSLSRHKRIHTREKPYKCEASDKSCEASDKSCSPSSGIIQHKKIHTRAKSYKCSSCERVFSRSVHLTQHQKIHKEMPCKCTVCGSDFCHTSYLLEHQRVHHEEKAYEYDEYGLAYIKQQGIHFREKPYTCSECGKDFRLNSHLIQHQRIHTGEKAHECNECGKAFSQTSCLIQHHKMHRKEKSYECNEYEGSFSHSSDLILQQEVLTRQKAFDCDVWEKNSSQRAHLVQHQSIHTKENS
# partner: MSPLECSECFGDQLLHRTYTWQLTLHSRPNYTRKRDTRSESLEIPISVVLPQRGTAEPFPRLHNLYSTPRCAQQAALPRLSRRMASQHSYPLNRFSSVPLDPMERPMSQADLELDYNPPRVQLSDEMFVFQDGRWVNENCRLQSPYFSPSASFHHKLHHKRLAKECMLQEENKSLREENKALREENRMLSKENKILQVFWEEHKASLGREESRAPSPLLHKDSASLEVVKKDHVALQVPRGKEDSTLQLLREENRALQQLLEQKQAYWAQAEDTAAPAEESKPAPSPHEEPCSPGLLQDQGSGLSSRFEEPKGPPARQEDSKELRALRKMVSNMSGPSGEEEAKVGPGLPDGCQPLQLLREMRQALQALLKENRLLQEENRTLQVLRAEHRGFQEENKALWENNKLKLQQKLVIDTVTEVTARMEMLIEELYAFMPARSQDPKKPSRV
# B2: Syntenin-1 (Homo sapiens), O00560 (parent)
# chain: MSLYPSLEDLKVDKVIQAQTAFSANPANPAILSEASAPIPHDGNLYPRLYPELSQYMGLSLNEEEIRANVAVVSGAPLQGQLVARPSSINYMVAPVTGNDVGIRRAEIKQGIREVILCKDQDGKIGLRLKSIDNGIFVQLVQANSPASLVGLRFGDQVLQINGENCAGWSSDKAHKVLKQAFGEKITMTIRDRPFERTITMHKDSTGHVGFIFKNGKITSIVKDSSAARNGLLTEHNICEINGQNVIGLKDSQIADILSTSGTVVTITIMPAFIFEHIIKRMAPSIMKSLMDHTIPEV
# B3: Cyclin-H (Homo sapiens), P51946 (parent)
# chain: MYHNSSQKRHWTFSSEEQLARLRADANRKFRCKAVANGKVLPNDPVFLEPHEEMTLCKYYEKRLLEFCSVFKPAMPRSVVGTACMYFKRFYLNNSVMEYHPRIIMLTCAFLACKVDEFNVSSPQFVGNLRESPLGQEKALEQILEYELLLIQQLNFHLIVHNPYRPFEGFLIDLKTRYPILENPEILRKTADDFLNRIALTDAYLLYTPSQIALTAILSSASRAGITMESYLSESLMLKENRTCLSQLLDIMKSMRNLVKKYEPPRSEEVAVLKQKLERCHSAELALNVITKKRKGYEDDDYVSKKSKHEEEEWTDDDLVESL
# partner: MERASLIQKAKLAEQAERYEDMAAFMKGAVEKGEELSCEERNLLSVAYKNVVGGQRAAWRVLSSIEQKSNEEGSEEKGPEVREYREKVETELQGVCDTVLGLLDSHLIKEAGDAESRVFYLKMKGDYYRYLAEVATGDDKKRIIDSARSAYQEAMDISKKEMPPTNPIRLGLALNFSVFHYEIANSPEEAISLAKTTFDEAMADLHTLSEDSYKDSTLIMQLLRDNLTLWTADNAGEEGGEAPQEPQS
# B4: Keratin-associated protein 5-9 (Homo sapiens), P26371 (parent)
# chain: MGCCGCSGGCGSSCGGCDSSCGSCGSGCRGCGPSCCAPVYCCKPVCCCVPACSCSSCGKRGCGSCGGSKGGCGSCGCSQCSCCKPCCCSSGCGSSCCQCSCCKPYCSQCSCCKPCCSSSGRGSSCCQSSCCKPCCSSSGCGSSCCQSSCCKPCCSQSRCCVPVCYQCKI
# B5: 26S proteasome non-ATPase regulatory subunit 9 (Homo sapiens), O00233 (parent)
# chain: MSDEEARQSGGSSQAGVVTVSDVQELMRRKEEIEAQIKANYDVLESQKGIGMNEPLVDCEGYPRSDVDLYQVRTARHNIICLQNDHKAVMKQVEEALHQLHARDKEKQARDMAEAHKEAMSRKLGQSESQGPPRAFAKVNSISPGSPASIAGLQVDDEIVEFGSVNTQNFQSLHNIGSVVQHSEGKPLNVTVIRRGEKHQLRLVPTRWAGKGLLGCNIIPLQR
# B6: Cyclin-H (Homo sapiens), P51946 (parent)
# chain: B3 chain
# partner: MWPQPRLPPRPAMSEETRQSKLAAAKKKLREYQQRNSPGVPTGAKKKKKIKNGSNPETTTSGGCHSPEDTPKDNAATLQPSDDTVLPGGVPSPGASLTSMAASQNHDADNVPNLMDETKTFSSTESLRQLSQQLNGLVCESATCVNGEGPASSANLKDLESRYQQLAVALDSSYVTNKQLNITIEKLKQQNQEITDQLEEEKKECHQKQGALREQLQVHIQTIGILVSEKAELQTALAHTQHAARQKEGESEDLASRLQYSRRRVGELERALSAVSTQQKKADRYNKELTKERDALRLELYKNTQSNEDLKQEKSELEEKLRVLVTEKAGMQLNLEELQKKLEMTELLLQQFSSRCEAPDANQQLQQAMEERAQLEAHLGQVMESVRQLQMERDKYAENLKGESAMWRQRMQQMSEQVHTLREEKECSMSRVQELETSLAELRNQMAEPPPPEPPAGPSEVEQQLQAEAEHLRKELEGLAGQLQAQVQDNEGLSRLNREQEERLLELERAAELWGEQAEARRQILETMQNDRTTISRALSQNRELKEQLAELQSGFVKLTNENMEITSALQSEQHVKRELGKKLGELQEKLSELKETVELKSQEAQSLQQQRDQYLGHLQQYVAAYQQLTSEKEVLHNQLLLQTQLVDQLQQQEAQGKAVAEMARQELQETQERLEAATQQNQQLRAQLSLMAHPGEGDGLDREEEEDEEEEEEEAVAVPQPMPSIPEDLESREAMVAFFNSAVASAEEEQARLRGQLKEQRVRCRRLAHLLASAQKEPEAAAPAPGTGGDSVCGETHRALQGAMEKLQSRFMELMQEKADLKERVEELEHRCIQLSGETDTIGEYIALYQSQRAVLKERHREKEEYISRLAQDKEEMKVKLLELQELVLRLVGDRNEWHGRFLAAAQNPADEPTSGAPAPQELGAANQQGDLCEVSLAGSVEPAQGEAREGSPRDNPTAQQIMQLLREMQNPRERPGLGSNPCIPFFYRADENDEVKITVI
# B7: E3 ubiquitin-protein ligase LNX (Homo sapiens), Q8TBB1 (parent)
# chain: MNQPESANDPEPLCAVCGQAHSLEENHFYSYPEEVDDDLICHICLQALLDPLDTPCGHTYCTLCLTNFLVEKDFCPMDRKPLVLQHCKKSSILVNKLLNKLLVTCPFREHCTQVLQRCDLEHHFQTSCKGASHYGLTKDRKRRSQDGCPDGCASLTATAPSPEVSAAATISLMTDEPGLDNPAYVSSAEDGQPAISPVDSGRSNRTRARPFERSTIRSRSFKKINRALSVLRRTKSGSAVANHADQGRENSENTTAPEVFPRLYHLIPDGEITSIKINRVDPSESLSIRLVGGSETPLVHIIIQHIYRDGVIARDGRLLPGDIILKVNGMDISNVPHNYAVRLLRQPCQVLWLTVMREQKFRSRNNGQAPDAYRPRDDSFHVILNKSSPEEQLGIKLVRKVDEPGVFIFNVLDGGVAYRHGQLEENDRVLAINGHDLRYGSPESAAHLIQASERRVHLVVSRQVRQRSPDIFQEAGWNSNGSWSPGPGERSNTPKPLHPTITCHEKVVNIQKDPGESLGMTVAGGASHREWDLPIYVISVEPGGVISRDGRIKTGDILLNVDGVELTEVSRSEAVALLKRTSSSIVLKALEVKEYEPQEDCSSPAALDSNHNMAPPSDWSPSWVMWLELPRCLYNCKDIVLRRNTAGSLGFCIVGGYEEYNGNKPFFIKSIVEGTPAYNDGRIRCGDILLAVNGRSTSGMIHACLARLLKELKGRITLTIVSWPGTFL
# B8: Zinc finger and BTB domain-containing protein 43 (Homo sapiens), O43298 (parent)
# chain: MEPGTNSFRVEFPDFSSTILQKLNQQRQQGQLCDVSIVVQGHIFRAHKAVLAASSPYFCDQVLLKNSRRIVLPDVMNPRVFENILLSSYTGRLVMPAPEIVSYLTAASFLQMWHVVDKCTEVLEGNPTVLCQKLNHGSDHQSPSSSSYNGLVESFELGSGGHTDFPKAQELRDGENEEESTKDELSSQLTEHEYLPSNSSTEHDRLSTEMASQDGEEGASDSAEFHYTRPMYSKPSIMAHKRWIHVKPERLEQACEGMDVHATYDEHQVTESINTVQTEHTVQPSGVEEDFHIGEKKVEAEFDEQADESNYDEQVDFYGSSMEEFSGERSDGNLIGHRQEAALAAGYSENIEMVTGIKEEASHLGFSATDKLYPCQCGKSFTHKSQRDRHMSMHLGLRPYGCGVCGKKFKMKHHLVGHMKIHTGIKPYECNICAKRFMWRDSFHRHVTSCTKSYEAAKAEQNTTEAN
# Variants of: B1
# Conditions: with cby2_human CBY2, Q8NA61
row,Variant,effect of a mutation on the interaction
1,C466G,with no effect

# Variants of: B2
# Conditions: with cryaa_human CRYAA
row,Variant,effect of a mutation on the interaction
1,K124R,with no effect

# Variants of: B2
# Conditions: with cox41_human COX4I1, P13073
# cox41_human COX4I1, P13073, sequence (P13073 whole entry): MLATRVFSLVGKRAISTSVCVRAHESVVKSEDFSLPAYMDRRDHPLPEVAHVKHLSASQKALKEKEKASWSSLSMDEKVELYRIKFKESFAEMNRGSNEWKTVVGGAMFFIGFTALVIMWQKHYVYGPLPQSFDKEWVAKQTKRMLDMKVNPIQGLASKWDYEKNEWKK
row,Variant,effect of a mutation on the interaction
1,K124R,with no effect

# Variants of: B2
# Conditions: with frih_human FTH1, P02794
row,Variant,effect of a mutation on the interaction
1,K124R,with no effect

# Variants of: B3
# Conditions: with 1433s_human SFN
row,Variant,effect of a mutation on the interaction
1,N155T,with no effect

# Variants of: B4
# Conditions: with catz_human CTSZ
row,Variant,effect of a mutation on the interaction
1,Y40C,disrupting interaction strength

# Variants of: B4
# Conditions: with sdc3_human SDC3, O75056
# sdc3_human SDC3, O75056, sequence (O75056 whole entry): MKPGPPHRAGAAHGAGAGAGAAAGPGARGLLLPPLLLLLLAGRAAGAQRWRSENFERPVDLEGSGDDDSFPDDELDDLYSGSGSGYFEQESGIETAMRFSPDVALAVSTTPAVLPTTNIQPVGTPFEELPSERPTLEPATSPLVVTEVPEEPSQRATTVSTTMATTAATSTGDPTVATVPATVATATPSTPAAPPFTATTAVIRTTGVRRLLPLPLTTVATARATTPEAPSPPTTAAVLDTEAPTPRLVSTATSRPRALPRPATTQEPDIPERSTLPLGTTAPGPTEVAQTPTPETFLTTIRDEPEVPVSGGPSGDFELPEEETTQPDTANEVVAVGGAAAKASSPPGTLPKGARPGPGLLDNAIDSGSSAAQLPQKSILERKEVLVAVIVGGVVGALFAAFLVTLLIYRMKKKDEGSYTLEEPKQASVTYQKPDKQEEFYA
row,Variant,effect of a mutation on the interaction
1,Y40C,with no effect

# Variants of: B5
# Conditions: with cc136_human CCDC136, Q96JN2
# cc136_human CCDC136, Q96JN2, sequence (Q96JN2 whole entry): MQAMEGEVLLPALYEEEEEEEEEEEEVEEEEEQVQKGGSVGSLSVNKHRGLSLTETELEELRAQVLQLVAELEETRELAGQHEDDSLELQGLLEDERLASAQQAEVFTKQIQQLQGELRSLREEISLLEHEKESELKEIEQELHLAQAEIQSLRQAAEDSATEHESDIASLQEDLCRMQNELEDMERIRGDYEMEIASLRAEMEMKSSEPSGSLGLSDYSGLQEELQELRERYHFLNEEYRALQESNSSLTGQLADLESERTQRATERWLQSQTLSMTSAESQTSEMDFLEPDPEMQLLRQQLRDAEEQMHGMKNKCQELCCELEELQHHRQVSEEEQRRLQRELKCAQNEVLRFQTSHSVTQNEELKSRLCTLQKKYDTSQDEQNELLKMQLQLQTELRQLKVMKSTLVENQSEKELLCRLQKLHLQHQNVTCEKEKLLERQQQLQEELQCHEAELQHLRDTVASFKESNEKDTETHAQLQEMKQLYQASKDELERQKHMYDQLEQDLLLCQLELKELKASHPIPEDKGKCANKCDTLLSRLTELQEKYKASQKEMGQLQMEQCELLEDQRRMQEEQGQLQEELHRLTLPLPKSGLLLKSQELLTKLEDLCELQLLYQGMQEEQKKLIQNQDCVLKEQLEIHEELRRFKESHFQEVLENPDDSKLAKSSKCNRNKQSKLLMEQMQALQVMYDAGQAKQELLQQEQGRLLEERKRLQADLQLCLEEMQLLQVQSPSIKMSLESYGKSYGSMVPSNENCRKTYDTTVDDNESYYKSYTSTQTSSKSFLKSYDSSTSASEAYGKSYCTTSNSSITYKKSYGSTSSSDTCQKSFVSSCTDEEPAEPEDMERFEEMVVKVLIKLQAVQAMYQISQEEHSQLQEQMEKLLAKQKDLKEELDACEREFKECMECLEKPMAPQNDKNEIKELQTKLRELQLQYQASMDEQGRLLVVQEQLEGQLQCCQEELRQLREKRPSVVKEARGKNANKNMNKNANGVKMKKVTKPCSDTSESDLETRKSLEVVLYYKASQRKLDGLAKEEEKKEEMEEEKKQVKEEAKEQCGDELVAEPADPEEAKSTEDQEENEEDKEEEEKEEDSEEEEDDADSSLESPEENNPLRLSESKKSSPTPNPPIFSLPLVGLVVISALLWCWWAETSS
row,Variant,effect of a mutation on the interaction
1,V17A,with no effect
2,R110W,with no effect

# Variants of: B5
# Conditions: with prs6a_human PSMC3, P17980
# prs6a_human PSMC3, P17980, sequence (P17980 whole entry): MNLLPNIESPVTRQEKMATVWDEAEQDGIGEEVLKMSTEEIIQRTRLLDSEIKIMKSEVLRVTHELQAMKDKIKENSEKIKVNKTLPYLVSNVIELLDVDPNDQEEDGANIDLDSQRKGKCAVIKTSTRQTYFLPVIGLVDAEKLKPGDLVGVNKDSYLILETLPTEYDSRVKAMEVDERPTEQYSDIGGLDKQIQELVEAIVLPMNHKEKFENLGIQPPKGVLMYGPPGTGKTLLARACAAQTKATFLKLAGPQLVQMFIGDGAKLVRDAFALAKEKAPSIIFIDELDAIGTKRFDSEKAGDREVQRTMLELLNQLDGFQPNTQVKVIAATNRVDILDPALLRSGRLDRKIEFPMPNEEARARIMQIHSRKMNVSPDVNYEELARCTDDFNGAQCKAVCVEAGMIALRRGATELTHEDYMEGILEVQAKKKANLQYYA
row,Variant,effect of a mutation on the interaction
1,R134W,with no effect
2,R110W,with no effect
3,E197G,with no effect

# Variants of: B5
# Conditions: with prs10_human PSMC6, P62333
# prs10_human PSMC6, P62333, sequence (P62333 whole entry): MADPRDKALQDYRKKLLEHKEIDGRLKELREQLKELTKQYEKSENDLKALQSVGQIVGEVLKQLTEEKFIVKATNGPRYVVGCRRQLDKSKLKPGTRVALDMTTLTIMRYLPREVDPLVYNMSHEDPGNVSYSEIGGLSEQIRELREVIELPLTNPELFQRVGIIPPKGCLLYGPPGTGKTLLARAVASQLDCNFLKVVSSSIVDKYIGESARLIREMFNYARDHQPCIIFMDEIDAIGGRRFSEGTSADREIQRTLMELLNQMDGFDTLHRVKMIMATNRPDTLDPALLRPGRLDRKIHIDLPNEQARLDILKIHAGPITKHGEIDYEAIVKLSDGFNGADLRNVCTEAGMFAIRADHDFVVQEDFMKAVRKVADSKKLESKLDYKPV
row,Variant,effect of a mutation on the interaction
1,R134W,with no effect
2,R110W,with no effect

# Variants of: B5
# Conditions: with spn90_human NCKIPSD
row,Variant,effect of a mutation on the interaction
1,R134W,with no effect
2,R110W,with no effect
3,E197G,with no effect

# Variants of: B6
# Conditions: with goga2_human GOLGA2, Q08379
row,Variant,effect of a mutation on the interaction
1,N155T,disrupting interaction strength

# Variants of: B7
# Conditions: with tri23_human TRIM23, P36406
# tri23_human TRIM23, P36406, sequence (P36406 whole entry): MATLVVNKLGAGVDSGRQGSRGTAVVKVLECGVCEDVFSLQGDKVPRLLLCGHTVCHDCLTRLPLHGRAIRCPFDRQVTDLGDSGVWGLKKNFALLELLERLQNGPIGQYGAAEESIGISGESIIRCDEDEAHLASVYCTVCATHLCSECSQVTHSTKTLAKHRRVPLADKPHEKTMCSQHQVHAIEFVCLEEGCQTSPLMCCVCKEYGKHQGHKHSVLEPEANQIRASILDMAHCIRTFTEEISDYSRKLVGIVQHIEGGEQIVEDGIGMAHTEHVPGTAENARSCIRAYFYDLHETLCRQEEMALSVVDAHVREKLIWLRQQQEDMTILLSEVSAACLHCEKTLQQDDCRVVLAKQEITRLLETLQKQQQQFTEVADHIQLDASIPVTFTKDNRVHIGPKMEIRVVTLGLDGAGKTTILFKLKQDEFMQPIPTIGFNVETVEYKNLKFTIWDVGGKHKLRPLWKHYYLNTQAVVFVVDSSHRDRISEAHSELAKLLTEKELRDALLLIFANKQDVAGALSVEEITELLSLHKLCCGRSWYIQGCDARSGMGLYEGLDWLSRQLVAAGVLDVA
row,Variant,effect of a mutation on the interaction
1,R342H,with no effect

# Variants of: B7
# Conditions: with clk2_human CLK2, P49760
# clk2_human CLK2, P49760, sequence (P49760 whole entry, looked up): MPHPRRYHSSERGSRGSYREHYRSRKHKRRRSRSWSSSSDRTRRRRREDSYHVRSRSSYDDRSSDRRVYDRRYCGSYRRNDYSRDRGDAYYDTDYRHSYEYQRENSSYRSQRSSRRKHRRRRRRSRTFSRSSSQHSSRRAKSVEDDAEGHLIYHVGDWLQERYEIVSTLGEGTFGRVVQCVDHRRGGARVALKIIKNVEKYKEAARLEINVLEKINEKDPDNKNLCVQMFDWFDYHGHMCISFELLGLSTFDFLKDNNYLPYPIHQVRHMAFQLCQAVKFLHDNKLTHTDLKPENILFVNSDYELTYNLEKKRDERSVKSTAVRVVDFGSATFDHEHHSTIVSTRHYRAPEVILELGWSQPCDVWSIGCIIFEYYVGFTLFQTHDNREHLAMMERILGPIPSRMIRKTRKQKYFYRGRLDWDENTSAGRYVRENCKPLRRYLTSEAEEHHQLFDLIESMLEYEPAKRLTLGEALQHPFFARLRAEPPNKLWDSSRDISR
row,Variant,effect of a mutation on the interaction
1,R342H,with no effect

# Variants of: B8
# Conditions: with psmd3_human PSMD3, O43242
# psmd3_human PSMD3, O43242, sequence (O43242 whole entry): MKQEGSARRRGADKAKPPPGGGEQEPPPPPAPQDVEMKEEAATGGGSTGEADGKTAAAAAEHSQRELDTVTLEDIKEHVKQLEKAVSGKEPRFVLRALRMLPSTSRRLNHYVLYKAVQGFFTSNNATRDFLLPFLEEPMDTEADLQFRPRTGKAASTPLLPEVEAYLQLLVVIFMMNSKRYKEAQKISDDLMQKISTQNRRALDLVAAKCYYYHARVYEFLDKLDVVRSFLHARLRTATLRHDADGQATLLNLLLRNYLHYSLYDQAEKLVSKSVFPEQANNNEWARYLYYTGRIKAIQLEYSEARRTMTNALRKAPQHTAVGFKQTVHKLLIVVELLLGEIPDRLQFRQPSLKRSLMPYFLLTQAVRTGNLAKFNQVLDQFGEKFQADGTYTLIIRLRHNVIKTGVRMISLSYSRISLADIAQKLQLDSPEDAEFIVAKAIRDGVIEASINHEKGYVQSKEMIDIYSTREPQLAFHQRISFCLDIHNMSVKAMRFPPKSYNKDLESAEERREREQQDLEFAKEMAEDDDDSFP
row,Variant,effect of a mutation on the interaction
1,L151V,disrupting interaction strength

# Variants of: B8
# Conditions: with traf2_human TRAF2, Q12933
# traf2_human TRAF2, Q12933, sequence (Q12933 whole entry): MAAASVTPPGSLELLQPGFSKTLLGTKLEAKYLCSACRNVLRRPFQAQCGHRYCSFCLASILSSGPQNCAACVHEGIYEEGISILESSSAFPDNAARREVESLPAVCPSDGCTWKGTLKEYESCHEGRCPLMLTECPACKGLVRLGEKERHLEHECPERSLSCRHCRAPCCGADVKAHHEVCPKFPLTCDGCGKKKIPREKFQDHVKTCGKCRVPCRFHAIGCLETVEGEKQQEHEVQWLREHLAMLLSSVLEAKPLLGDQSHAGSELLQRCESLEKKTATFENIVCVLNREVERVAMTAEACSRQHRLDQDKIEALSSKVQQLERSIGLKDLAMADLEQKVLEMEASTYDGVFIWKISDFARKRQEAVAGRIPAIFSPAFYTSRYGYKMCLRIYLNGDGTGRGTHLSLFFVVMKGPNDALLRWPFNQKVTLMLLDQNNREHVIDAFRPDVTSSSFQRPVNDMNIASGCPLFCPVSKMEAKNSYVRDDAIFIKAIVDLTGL
row,Variant,effect of a mutation on the interaction
1,L151V,disrupting interaction strength

# Variants of: B8
# Conditions: with mo4l2_human MORF4L2, Q15014
# mo4l2_human MORF4L2, Q15014, sequence (Q15014 whole entry): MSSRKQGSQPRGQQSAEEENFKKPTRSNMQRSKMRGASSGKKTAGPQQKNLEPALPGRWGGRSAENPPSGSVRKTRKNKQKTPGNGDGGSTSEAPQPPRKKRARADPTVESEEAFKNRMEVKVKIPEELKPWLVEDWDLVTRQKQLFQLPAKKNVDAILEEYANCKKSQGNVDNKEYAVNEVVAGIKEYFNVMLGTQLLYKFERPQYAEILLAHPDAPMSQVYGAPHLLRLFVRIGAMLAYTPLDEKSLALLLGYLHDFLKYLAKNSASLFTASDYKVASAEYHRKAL
row,Variant,effect of a mutation on the interaction
1,L151V,disrupting interaction strength

# Variants of: B8
# Conditions: with arrb1_human ARRB1, P49407
row,Variant,effect of a mutation on the interaction
1,L151V,disrupting interaction strength
